Source: patent US20090105152A1
Numbered stars: 1 amine (or outer) side, 2 acyl side, 3 side chain; on linkers, the order of the positions; unused ones are H or OH. Square brackets hold non-standard residues; d marks the D form. Primed or numbered codes have the meaning given here. Azetidine3carboxylic = O=C(C1CN([*:1])C1)[*:2]; Phe(βS-OH) = N[C@H](C(=O)O)[C@@H](O)c1ccccc1; Pro(trans-4-F) = O=C(O)[C@@H]1C[C@@H](F)CN1; Pic(3) = 3-piperidinecarboxylic acid; Arg(Me) = CNC(=N)NCCC[C@H](N)C(=O)O; Dap(CONH2) = NC(=O)NC[C@H](N)C(=O)O; cisHyp = O=C(O)[C@@H]1C[C@H](O)CN1; Hyp = O=C(O)[C@@H]1C[C@@H](O)CN1; d4Pal = N[C@H](Cc1ccncc1)C(=O)O; Pip = O=C(O)[C@@H]1CCCCN1; NMeA = CN[C@@H](C)C(=O)O; Thz = O=C(O)[C@@H]1CSCN1; dNMeA = CN[C@H](C)C(=O)O; Aze = O=C(O)[C@@H]1CCN1; Nva = CCC[C@H](N)C(=O)O; 2Abz = Nc1ccccc1C(=O)O; Aib = CC(C)(N)C(=O)O; azaGly = NNC(=O)O; Sar = CNCC(=O)O

target: human OT7T175 (metastin receptor) (human) (UniProt Q969F8); assay: cell-based or functional assay
Sequence (Q969F8 whole entry L364H): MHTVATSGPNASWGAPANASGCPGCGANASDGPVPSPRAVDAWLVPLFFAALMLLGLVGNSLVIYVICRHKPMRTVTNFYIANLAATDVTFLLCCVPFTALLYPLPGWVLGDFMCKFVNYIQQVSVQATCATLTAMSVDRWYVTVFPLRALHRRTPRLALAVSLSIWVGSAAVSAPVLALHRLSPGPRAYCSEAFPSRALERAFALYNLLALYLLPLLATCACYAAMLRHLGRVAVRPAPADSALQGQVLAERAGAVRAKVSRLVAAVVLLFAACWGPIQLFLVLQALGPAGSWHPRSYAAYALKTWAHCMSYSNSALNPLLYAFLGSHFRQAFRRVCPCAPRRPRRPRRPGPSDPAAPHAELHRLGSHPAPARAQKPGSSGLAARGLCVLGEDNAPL

Binder | intracellular Ca ion level-increasing activity [specific activity to Metastin (1-54)] (relative to Metastin (1-54))
Ac-[dY][Aze]NTF[azaGly]L[Arg(Me)]W-NH2 (SMILES CNC(=N)NCCC[C@H](NC(=O)[C@H](CC(C)C)NC(=O)NNC(=O)[C@H](Cc1ccccc1)NC(=O)[C@@H](NC(=O)[C@H](CC(N)=O)NC(=O)[C@@H]1CCN1C(=O)[C@@H](Cc1ccc(O)cc1)NC(C)=O)[C@@H](C)O)C(=O)N[C@@H](Cc1c[nH]c2ccccc12)C(N)=O) [des(1)-Ac-[D-Tyr2,Aze(2)3,Thr5,AzaGly7,Arg(Me)9,Trp10]MS10] | 0.8
Ac-[dY][Aib]NTF[azaGly]L[Arg(Me)]W-NH2 (SMILES CNC(=N)NCCC[C@H](NC(=O)[C@H](CC(C)C)NC(=O)NNC(=O)[C@H](Cc1ccccc1)NC(=O)[C@@H](NC(=O)[C@H](CC(N)=O)NC(=O)C(C)(C)NC(=O)[C@@H](Cc1ccc(O)cc1)NC(C)=O)[C@@H](C)O)C(=O)N[C@@H](Cc1c[nH]c2ccccc12)C(N)=O) [des(1)-Ac-[D-Tyr2,Aib3,Thr5,AzaGly7,Arg(Me)9,Trp10]MS10] | 1.5
Ac-[dY][dW]NTF[azaGly]L[dR]W-NH2 (SMILES CC(=O)N[C@H](Cc1ccc(O)cc1)C(=O)N[C@H](Cc1c[nH]c2ccccc12)C(=O)N[C@@H](CC(N)=O)C(=O)N[C@H](C(=O)N[C@@H](Cc1ccccc1)C(=O)NNC(=O)N[C@@H](CC(C)C)C(=O)N[C@H](CCCNC(=N)N)C(=O)N[C@@H](Cc1c[nH]c2ccccc12)C(N)=O)[C@@H](C)O) [des(1)-Ac-[D-Tyr2,D-Trp3,Thr5,AzaGly7,D-Arg9,Trp10]MS10] | 12.8
Ac-[dY][dNMeA]NTF[azaGly]L[Arg(Me)]W-NH2 (SMILES CNC(=N)NCCC[C@H](NC(=O)[C@H](CC(C)C)NC(=O)NNC(=O)[C@H](Cc1ccccc1)NC(=O)[C@@H](NC(=O)[C@H](CC(N)=O)NC(=O)[C@@H](C)N(C)C(=O)[C@@H](Cc1ccc(O)cc1)NC(C)=O)[C@@H](C)O)C(=O)N[C@@H](Cc1c[nH]c2ccccc12)C(N)=O) [des(1)-Ac-[D-Tyr2,D-NMeAla3,Thr5,AzaGly7,Arg(Me)9,Trp10]MS10] | 3.2
Ac-[dY]GNTF[azaGly]L[Arg(Me)]W-NH2 (SMILES CNC(=N)NCCC[C@H](NC(=O)[C@H](CC(C)C)NC(=O)NNC(=O)[C@H](Cc1ccccc1)NC(=O)[C@@H](NC(=O)[C@H](CC(N)=O)NC(=O)CNC(=O)[C@@H](Cc1ccc(O)cc1)NC(C)=O)[C@@H](C)O)C(=O)N[C@@H](Cc1c[nH]c2ccccc12)C(N)=O) [des(1)-Ac-[D-Tyr2,Gly3,Thr5,AzaGly7,Arg(Me)9,Trp10]MS10] | 3.1
Ac-[dY][dW][Dap(CONH2)]TF[azaGly]L[Arg(Me)]W-NH2 (SMILES CNC(=N)NCCC[C@H](NC(=O)[C@H](CC(C)C)NC(=O)NNC(=O)[C@H](Cc1ccccc1)NC(=O)[C@@H](NC(=O)[C@H](CNC(N)=O)NC(=O)[C@@H](Cc1c[nH]c2ccccc12)NC(=O)[C@@H](Cc1ccc(O)cc1)NC(C)=O)[C@@H](C)O)C(=O)N[C@@H](Cc1c[nH]c2ccccc12)C(N)=O) [des(1)-Ac-[D-Tyr2,D-Trp3,Alb4,Thr5,AzaGly7,Arg(Me)9,Trp10]MS10] | 1
Ac-[dY][dW]N[dP]F[azaGly]L[Arg(Me)]W-NH2 (SMILES CNC(=N)NCCC[C@H](NC(=O)[C@H](CC(C)C)NC(=O)NNC(=O)[C@H](Cc1ccccc1)NC(=O)[C@H]1CCCN1C(=O)[C@H](CC(N)=O)NC(=O)[C@@H](Cc1c[nH]c2ccccc12)NC(=O)[C@@H](Cc1ccc(O)cc1)NC(C)=O)C(=O)N[C@@H](Cc1c[nH]c2ccccc12)C(N)=O) [des(1)-Ac-[D-Tyr2,D-Trp3,D-Pro5,AzaGly7,Arg(Me)9,Trp10]MS10] | 3.8
Ac-[dY][d4Pal][Dap(CONH2)]TF[azaGly]L[Arg(Me)]W-NH2 (SMILES CNC(=N)NCCC[C@H](NC(=O)[C@H](CC(C)C)NC(=O)NNC(=O)[C@H](Cc1ccccc1)NC(=O)[C@@H](NC(=O)[C@H](CNC(N)=O)NC(=O)[C@@H](Cc1ccncc1)NC(=O)[C@@H](Cc1ccc(O)cc1)NC(C)=O)[C@@H](C)O)C(=O)N[C@@H](Cc1c[nH]c2ccccc12)C(N)=O) [des(1)-Ac-[D-Tyr2,D-Pya(4)3,Alb4,Thr5,AzaGly7,Arg(Me)9,Trp10]MS10] | 2.6
Ac-[dY][Hyp][Nva]TF[azaGly]L[Arg(Me)]W-NH2 (SMILES CCC[C@H](NC(=O)[C@@H]1C[C@@H](O)CN1C(=O)[C@@H](Cc1ccc(O)cc1)NC(C)=O)C(=O)N[C@H](C(=O)N[C@@H](Cc1ccccc1)C(=O)NNC(=O)N[C@@H](CC(C)C)C(=O)N[C@@H](CCCNC(=N)NC)C(=O)N[C@@H](Cc1c[nH]c2ccccc12)C(N)=O)[C@@H](C)O) [des(1)-Ac-[D-Tyr2,Hyp3,Nva4,Thr5,AzaGly7,Arg(Me)9,Trp10]MS10] | 1.2
Ac-[dY][Azetidine3carboxylic]NTF[azaGly]L[Arg(Me)]W-NH2 (SMILES CNC(=N)NCCC[C@H](NC(=O)[C@H](CC(C)C)NC(=O)NNC(=O)[C@H](Cc1ccccc1)NC(=O)[C@@H](NC(=O)[C@H](CC(N)=O)NC(=O)C1CN(C(=O)[C@@H](Cc2ccc(O)cc2)NC(C)=O)C1)[C@@H](C)O)C(=O)N[C@@H](Cc1c[nH]c2ccccc12)C(N)=O) [des(1)-Ac-[D-Tyr2,Aze(3)3,Thr5,AzaGly7,Arg(Me)9,Trp10]MS10] | 4.1
Ac-[dY][2Abz]NTF[azaGly]L[Arg(Me)]W-NH2 (SMILES CNC(=N)NCCC[C@H](NC(=O)[C@H](CC(C)C)NC(=O)NNC(=O)[C@H](Cc1ccccc1)NC(=O)[C@@H](NC(=O)[C@H](CC(N)=O)NC(=O)c1ccccc1NC(=O)[C@@H](Cc1ccc(O)cc1)NC(C)=O)[C@@H](C)O)C(=O)N[C@@H](Cc1c[nH]c2ccccc12)C(N)=O) [des(1)-Ac-[D-Tyr2,Abz(2)3,Thr5,AzaGly7,Arg(Me)9,Trp10]MS10] | 3.2

Now from value to binder:

intracellular Ca ion level-increasing activity [specific activity to Metastin (1-54)] (relative to Metastin (1-54)) | Binder
1.4 | Ac-[dY][Thz]NTF[azaGly]L[Arg(Me)]W-NH2 (SMILES CNC(=N)NCCC[C@H](NC(=O)[C@H](CC(C)C)NC(=O)NNC(=O)[C@H](Cc1ccccc1)NC(=O)[C@@H](NC(=O)[C@H](CC(N)=O)NC(=O)[C@@H]1CSCN1C(=O)[C@@H](Cc1ccc(O)cc1)NC(C)=O)[C@@H](C)O)C(=O)N[C@@H](Cc1c[nH]c2ccccc12)C(N)=O) [des(1)-Ac-[D-Tyr2,Thz3,Thr5,AzaGly7,Arg(Me)9,Trp10]MS10]
1.1 | {3‑(p-hydroxyphenyl)propionyl}-[Hyp]NTF[azaGly]L[Arg(Me)]W-NH2 [des(1-2)-3-(p-Hydroxyphenyl)propionyl-[Hyp3,Thr5,AzaGly7,Arg(Me)9,Trp10]MS10]
0.6 | Ac-[dY][cisHyp]NTF[azaGly]L[Arg(Me)]W-NH2 [des(1)-Ac-[D-Tyr2,cisHyp3,Thr5,AzaGly7,Arg(Me)9,Trp10]MS10]
8.8 | Ac-[dY][Sar]NTF[azaGly]L[Arg(Me)]W-NH2 (SMILES CNC(=N)NCCC[C@H](NC(=O)[C@H](CC(C)C)NC(=O)NNC(=O)[C@H](Cc1ccccc1)NC(=O)[C@@H](NC(=O)[C@H](CC(N)=O)NC(=O)CN(C)C(=O)[C@@H](Cc1ccc(O)cc1)NC(C)=O)[C@@H](C)O)C(=O)N[C@@H](Cc1c[nH]c2ccccc12)C(N)=O) [des(1)-Ac-[D-Tyr2,Sar3,Thr5,AzaGly7,Arg(Me)9,Trp10]MS10]
1.1 | Ac-Y[Hyp]NTF[azaGly]L[Arg(Me)]W-NH2 [des(1)-Ac-[Tyr2,Hyp3,Thr5,AzaGly7,Arg(Me)9,Trp10]MS10]
2.7 | Ac-[dY][NMeA]NTF[azaGly]L[Arg(Me)]W-NH2 (SMILES CNC(=N)NCCC[C@H](NC(=O)[C@H](CC(C)C)NC(=O)NNC(=O)[C@H](Cc1ccccc1)NC(=O)[C@@H](NC(=O)[C@H](CC(N)=O)NC(=O)[C@H](C)N(C)C(=O)[C@@H](Cc1ccc(O)cc1)NC(C)=O)[C@@H](C)O)C(=O)N[C@@H](Cc1c[nH]c2ccccc12)C(N)=O) [des(1)-Ac-[D-Tyr2,NMeAla3,Thr5,AzaGly7,Arg(Me)9,Trp10]MS10]
1.1 | Ac-[dY][Pip]NTF[azaGly]L[Arg(Me)]W-NH2 (SMILES CNC(=N)NCCC[C@H](NC(=O)[C@H](CC(C)C)NC(=O)NNC(=O)[C@H](Cc1ccccc1)NC(=O)[C@@H](NC(=O)[C@H](CC(N)=O)NC(=O)[C@@H]1CCCCN1C(=O)[C@@H](Cc1ccc(O)cc1)NC(C)=O)[C@@H](C)O)C(=O)N[C@@H](Cc1c[nH]c2ccccc12)C(N)=O) [des(1)-Ac-[D-Tyr2,Pic(2)3,Thr5,AzaGly7,Arg(Me)9,Trp10]MS10]
2.2 | Ac-[dY][Pic(3)]NTF[azaGly]L[Arg(Me)]W-NH2 [des(1)-Ac-[D-Tyr2,Pic(3)3,Thr5,AzaGly7,Arg(Me)9,Trp10]MS10]
2 | Ac-[dY][Hyp]NTF[azaGly]L[Arg(Me)]W-NH2 [des(1)-Ac-[D-Tyr2,Hyp3,Thr5,AzaGly7,Arg(Me)9,Trp10]MS10]
0.8 | Ac-[dY][Hyp]NT[Phe(βS-OH)][azaGly]L[Arg(Me)]W-NH2 (SMILES CNC(=N)NCCC[C@H](NC(=O)[C@H](CC(C)C)NC(=O)NNC(=O)[C@@H](NC(=O)[C@@H](NC(=O)[C@H](CC(N)=O)NC(=O)[C@@H]1C[C@@H](O)CN1C(=O)[C@@H](Cc1ccc(O)cc1)NC(C)=O)[C@@H](C)O)[C@@H](O)c1ccccc1)C(=O)N[C@@H](Cc1c[nH]c2ccccc12)C(N)=O) [des(1)-Ac-[D-Tyr2,Hyp3,Thr5,erythro-Ser(3Phenyl)6,AzaGly7,Arg(Me)9,Trp10]MS10]
0.7 | Ac-[dY][Pro(trans-4-F)]NTF[azaGly]L[Arg(Me)]W-NH2 (SMILES CNC(=N)NCCC[C@H](NC(=O)[C@H](CC(C)C)NC(=O)NNC(=O)[C@H](Cc1ccccc1)NC(=O)[C@@H](NC(=O)[C@H](CC(N)=O)NC(=O)[C@@H]1C[C@@H](F)CN1C(=O)[C@@H](Cc1ccc(O)cc1)NC(C)=O)[C@@H](C)O)C(=O)N[C@@H](Cc1c[nH]c2ccccc12)C(N)=O) [des(1)-Ac-[D-Tyr2,Pro(4F)3,Thr5,AzaGly7,Arg(Me)9,Trp10]MS10]
